Key:
ELP-N (construct 5) [1] = biological target: T1, ELP-N (construct 5); assay: co-precipitation with ELP-N by ammonium sulfate
T1 construct: also called ELP intein N-fragment

NC1A-CBD (construct 12) [2] = biological target: T2, NC1A-CBD (construct 12); assay: capture from E. coli lysate on chitin-bound NC1A-CBD, 0.5 mM ZnCl2, SDS-PAGE densitometry
T2 construct: free in solution in the kinetic assays
Procedure: Sample purification via SIRP (FIG. 14): A disposable column containing 150 μL chitin resin was loaded with soluble lysate containing NC1A-CBD in Buffer A (0.5 M NaCl, 10 mM Tris-HCl, pH 8.0) and washed 4 times with 10 column volumes (CV) of Buffer B (0.5 M NaCl, 50 mM NaPOi, pH 6.0). All loading and washing steps were performed in batch phase. The last wash was supplemented with 0.5 mM ZnCl₂. […] The column was subsequently washed with 10 CV of Buffer B with ZnCl₂ (0.5 mM) and finally incubated in 4 CV of Buffer A containing 50 mM DTT at room temperature for 30 min or at 6° C. for 3 h.

ELP-N (construct 5) [3] = biological target: T1, ELP-N (construct 5); assay: lysates mixed 10 min at room temperature, 0.4 M ammonium sulfate precipitation of the ELP complex, SDS-PAGE
NC1A-CBD (construct 12) [4] = biological target: T2, NC1A-CBD (construct 12); assay: cell-based or functional assay

Row | Binder | binding result (ELP-N (construct 5) [1]) | molar ratio of bound C*-POI to NC1A-CBD (NC1A-CBD (construct 12) [2]) | binding result (ELP-N (construct 5) [3]) | percent of PTDH cleaved from C*-PTDH within 30 seconds, 1:1 molar ratio, 50 mM DTT, 22 C and 6 C (NC1A-CBD (construct 12) [4])
1 | C*-CAT (construct 9) (other, also called C*-chloramphenicol acetyl transferase) MIKIATRKYLGKQNVYGIGVERDHNFALKNGFIASNCFNASMEKKITGYTTVDISQWHRKEHFEAFQSVAQCTYNQTVQLDITAFLKTVKKNKHKFYPAFIHILARLMNAHPEFRMAMKDGELVIWDSVHPCYTVFHEQTETFSSLWSEYHDDFRQFLHIYSQDVACYGENLAYFPKGFIENMFFVSANPWVSFTSFDLNVANMDNFFAPVFTMGKYYTQGDKVLMPLAIQVHHAVCDGFHVGRMLNELQQYCDEWQGGALEHHHHHH | binds |  |  | 
2 | C*-PTDH (construct 6) (other, also called NpuDnaE C-fragment Asp118Gly fused to phosphite dehydrogenase) MIKIATRKYLGKQNVYGIGVERDHNFALKNGFIASNCFNASMLPKLVITHRVHEEILQLLAPHCELITNQTDSTLTREEILRRCRDAQAMMAFMPDRVDADFLQACPELRVIGCALKGFDNFDVDACTARGVWLTFVPDLLTVPTAELAIGLAVGLGRHLRAADAFVRSGKFRGWQPRFYGTGLDNATVGFLGMGAIGLAMADRLQGWGATLQYHARKALDTQTEQRLGLRQVACSELFASSDFILLALPLNADTLHLVNAELLALVRPGALLVNPCRGSVVDEAAVLAALERGQLGGYAADVFEMEDWARADRPQQIDPALLAHPNTLFTPHIGSAVRAVRLEIERCAAQNILQALAGERPINAVNRLPKANPAADLEHHHHHH |  | 0.35 molar ratio | binds | ~50%

Source: US20150353597A1 (TEXAS A AND M UNIVERSITY SYSTEM, published 2015)
